Assay results from IntAct's records for PubMed 25239945.

B1: Signal peptide peptidase (Homo sapiens), Q8TCT9 (parent)
chain: MDSALSDPHNGSAEAGGPTNSTTRPPSTPEGIALAYGSLLLMALLPIFFGALRSVRCARGKNASDMPETITSRDAARFPIIASCTLLGLYLFFKIFSQEYINLLLSMYFFVLGILALSHTISPFMNKFFPASFPNRQYQLLFTQGSGENKEEIINYEFDTKDLVCLGLSSIVGVWYLLRKHWIANNLFGLAFSLNGVELLHLNNVSTGCILLGGLFIYDVFWVFGTNVMVTVAKSFEAPIKLVFPQDLLEKGLEANNFAMLGLGDVVIPGIFIALLLRFDISLKKNTHTYFYTSFAAYIFGLGLTIFIMHIFKHAQPALLYLVPACIGFPVLVALAKGEVTEMFSYEESNPKDPAAVTESKEGTEASASKGLEKKEK
partner: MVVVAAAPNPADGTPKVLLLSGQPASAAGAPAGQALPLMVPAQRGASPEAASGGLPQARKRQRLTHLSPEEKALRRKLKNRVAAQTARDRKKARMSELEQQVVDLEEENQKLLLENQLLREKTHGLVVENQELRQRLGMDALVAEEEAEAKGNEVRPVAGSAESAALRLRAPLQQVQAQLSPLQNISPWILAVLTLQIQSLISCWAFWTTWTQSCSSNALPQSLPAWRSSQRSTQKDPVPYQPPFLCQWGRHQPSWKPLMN

Variants of: B1
Conditions: with XBP1, P17861-1

Row | effect of a mutation on the interaction | Variant
1 | increasing interaction | D265A
